Assay results: publication PMC11931385, “Structural and functional analysis of cancer-associated missense variants in the retinoblastoma protein pocket domain” (The Journal of Biological Chemistry, 2025)
No end group written: not given here. TMR = tetramethyl rhodamine dye

T1: Rb^P A525G (human, UniProt P06400 380-788, A525G)
T1 construct: also called variant 20
T1 sequence (looked up): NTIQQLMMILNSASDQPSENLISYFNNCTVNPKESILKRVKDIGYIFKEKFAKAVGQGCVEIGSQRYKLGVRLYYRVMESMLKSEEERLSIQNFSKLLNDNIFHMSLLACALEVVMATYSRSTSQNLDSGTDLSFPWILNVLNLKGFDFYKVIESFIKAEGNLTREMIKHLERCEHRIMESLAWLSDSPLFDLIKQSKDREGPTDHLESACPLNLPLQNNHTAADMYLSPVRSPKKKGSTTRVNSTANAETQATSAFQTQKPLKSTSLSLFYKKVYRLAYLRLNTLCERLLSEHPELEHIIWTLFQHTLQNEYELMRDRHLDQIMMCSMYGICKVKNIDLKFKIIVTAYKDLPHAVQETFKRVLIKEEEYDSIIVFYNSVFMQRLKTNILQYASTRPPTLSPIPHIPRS

T2: Rb^P M546I (human, UniProt P06400 380-788, M546I)
T2 construct: also called variant 25
T2 sequence (looked up): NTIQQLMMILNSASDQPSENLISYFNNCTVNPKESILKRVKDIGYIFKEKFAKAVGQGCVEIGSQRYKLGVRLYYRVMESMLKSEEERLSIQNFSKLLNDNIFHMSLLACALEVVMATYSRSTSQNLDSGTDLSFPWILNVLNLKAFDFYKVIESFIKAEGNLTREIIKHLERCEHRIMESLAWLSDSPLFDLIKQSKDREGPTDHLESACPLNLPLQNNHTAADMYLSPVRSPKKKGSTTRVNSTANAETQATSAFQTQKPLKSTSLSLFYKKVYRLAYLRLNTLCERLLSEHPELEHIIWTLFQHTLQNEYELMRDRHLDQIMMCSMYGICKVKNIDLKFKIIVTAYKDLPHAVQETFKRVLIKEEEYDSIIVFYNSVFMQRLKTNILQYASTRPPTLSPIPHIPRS

T3: Rb^P S474R (human, UniProt P06400 380-788, S474R)
T3 construct: also called variant 13
T3 sequence (looked up): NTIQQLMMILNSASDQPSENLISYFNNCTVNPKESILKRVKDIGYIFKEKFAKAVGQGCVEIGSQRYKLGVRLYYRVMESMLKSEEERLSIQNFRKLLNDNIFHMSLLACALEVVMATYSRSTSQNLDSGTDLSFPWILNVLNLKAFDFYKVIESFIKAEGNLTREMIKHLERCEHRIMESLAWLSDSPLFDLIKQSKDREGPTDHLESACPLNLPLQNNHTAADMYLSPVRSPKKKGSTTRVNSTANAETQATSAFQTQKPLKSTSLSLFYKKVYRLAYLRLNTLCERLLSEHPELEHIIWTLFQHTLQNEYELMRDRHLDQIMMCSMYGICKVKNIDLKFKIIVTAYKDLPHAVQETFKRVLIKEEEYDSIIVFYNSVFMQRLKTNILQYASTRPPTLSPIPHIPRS

T4: Rb^P S751Y (human, UniProt P06400 380-788, S751Y)
T4 construct: also called variant 72
T4 sequence (looked up): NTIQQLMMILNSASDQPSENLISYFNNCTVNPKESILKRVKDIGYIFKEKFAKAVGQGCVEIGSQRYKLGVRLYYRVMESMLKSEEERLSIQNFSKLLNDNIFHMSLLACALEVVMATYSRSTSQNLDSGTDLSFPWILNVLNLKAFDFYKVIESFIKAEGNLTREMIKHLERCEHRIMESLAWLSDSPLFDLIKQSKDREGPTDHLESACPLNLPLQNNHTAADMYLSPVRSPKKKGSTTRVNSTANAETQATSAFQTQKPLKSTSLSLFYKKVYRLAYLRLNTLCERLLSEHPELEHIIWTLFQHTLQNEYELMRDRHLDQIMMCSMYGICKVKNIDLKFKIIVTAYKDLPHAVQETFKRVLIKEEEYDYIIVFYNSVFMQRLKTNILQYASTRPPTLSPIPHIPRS

T5: Rb^P I703F (human, UniProt P06400 380-788, I703F)
T5 construct: also called variant 64
T5 sequence (looked up): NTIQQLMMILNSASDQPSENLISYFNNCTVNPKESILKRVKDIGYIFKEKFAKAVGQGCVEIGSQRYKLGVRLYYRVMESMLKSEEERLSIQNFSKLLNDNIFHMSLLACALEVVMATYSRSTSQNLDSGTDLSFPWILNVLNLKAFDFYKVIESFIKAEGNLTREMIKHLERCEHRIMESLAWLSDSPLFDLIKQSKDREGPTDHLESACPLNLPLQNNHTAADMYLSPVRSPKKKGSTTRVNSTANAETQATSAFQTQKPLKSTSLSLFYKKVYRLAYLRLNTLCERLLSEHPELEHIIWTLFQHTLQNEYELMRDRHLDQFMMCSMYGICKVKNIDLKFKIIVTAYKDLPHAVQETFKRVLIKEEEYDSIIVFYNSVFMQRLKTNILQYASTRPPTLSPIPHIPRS


How the values were obtained:
Assay in all cases: fluorescence polarisation; 25 °C; unlabeled Rb^P titrated against 1.5 nM TMR-E2F1^TD or 7.5 nM TMR-E7^LxCxE; 25 mM Tris pH 8.0, 200 mM NaCl, 1 mM DTT, 0.1% Tween-20; 2 min incubation; quadratic fit; apparent Kd for the variants, Kd for WT
Details in all cases: both partners purified
Rb^P A525G = molecular target: T1, Rb^P A525G
Rb^P M546I = molecular target: T2, Rb^P M546I
Rb^P S474R = molecular target: T3, Rb^P S474R
Rb^P S751Y = molecular target: T4, Rb^P S751Y
Rb^P I703F = molecular target: T5, Rb^P I703F

Binder	Kd (Rb^P A525G)	Kd (Rb^P M546I)	Kd (Rb^P S474R)	Kd (Rb^P S751Y)	Kd (Rb^P I703F)
{TMR}-GEGIRDLFDCDFGDLTPLD (also called E2F^TD; source: synthetic peptide, bought: GenScript) [TMR-E2F1^TD, peptide of the E2F1 transactivation domain]	36 nM	13 nM	365 nM	33 nM	63 nM
DLYCYEQLN (also: TMR label, position not given here, source: synthetic peptide, bought: GenScript) [TMR-E7^LxCxE, LxCxE peptide of the E7 oncoprotein from HPV]	12 nM	7 nM	5 nM	127 nM	16 nM
